± gives the uncertainty stated by the source.
Assay: self-splicing fitness, log relative to wild type (ln ratio); higher = more splicing; Tetrahymena group I intron in knt gene, E. coli kanamycin selection, DiMSum; sequences stand for … in CUCUCU…GGAGGGAAAAGUUAUCAGGCAUGCACCUGGUAGCUAGUCUUUAAACCAAUAGAUUGCAUCGGUUUAAAAGGCAAGACCGUCAAAUUGCGGGAAAGGGGUCAACAGCCGUUCAGUACCAAGUCUCAGGGGAAACUUUGAGAUGGCCUUGCAAAGGGUAUGGUAAUAAGCUGACGGACAUGGUCCUAACCACGCAGCCAAGUCCUAAGUCAACAGAUCUUCUGUUGAUAUGGAUGCAGUUCACAGACUAAAUGUCGGUCGGGGAAGAUGUAUUCUUCUCAUAAGAUAUAGUCGGACCUCUCCUUAAUGGGAGCUAGCGGAUGAAGUGAUGCAACACUGGAGCCGCUGGGAACUAAUUUGUAUGCGAAAGUAUAUUGAUUAGUUUUGGAGUACUCGUGGUCG
Summary of the method: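 Fitness was computed with DiMSum as the error-weighted combination of replicate fold changes, kanamycin versus none, each normalised to wild type. The library randomised all eight intron nucleotides of the P1ex region, with the intron placed in the knt kanamycin-resistance gene on pET-22b(+) in E. coli BL21(DE3). Six replicate transformations were grown overnight at 37°C or 30°C on LB agar with or without 25 μg/mL kanamycin, plus 100 μg/mL carbenicillin, 50 μM IPTG and 0.2% rhamnose. Pooled colonies were amplicon-sequenced on an Illumina HiSeq 2500.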

Sequence | self-splicing fitness (ln) (30 °C) | self-splicing fitness (ln) (37 °C)
GCAAAGCAAUAUUACGAAUC | -1.68 ± 0.12 | -0.115 ± 0.13
AUUCAGCAAUAUUACGCGCU | -2.15 ± 0.12 | -0.796 ± 0.13
GCACAGCAAUAUUACGGGCU | -3.81 ± 0.24 | -1.77 ± 0.12
UUCUAGCAAUAUUACGCUAC | -2.37 ± 0.38 | 
UCAAAGCAAUAUUACGACAG | -2.66 ± 0.14 | -1.25 ± 0.14
CGCUAGCAAUAUUACGGGGA | -2.93 ± 0.32 | -1.95 ± 0.32
GGCCAGCAAUAUUACGGGGG | -3.54 ± 0.18 | -1.85 ± 0.17
UAUGAGCAAUAUUACGAAAC | -2.34 ± 0.21 | 
CACGAGCAAUAUUACGGGUC | -4.31 ± 0.26 | -1.99 ± 0.15
GGCGAGCAAUAUUACGUACU | -0.65 ± 0.13 | -0.094 ± 0.15
UAGGAGCAAUAUUACGAGGG | -3.6 ± 0.42 | -2.35 ± 0.33
CAAAAGCAAUAUUACGCGUA | -2.01 ± 0.12 | -1.32 ± 0.11
AGCCAGCAAUAUUACGCGCC | -2.18 ± 0.15 | -1.74 ± 0.23
AGUAAGCAAUAUUACGACCA | -0.203 ± 0.12 | 0.184 ± 0.21
UAAUAGCAAUAUUACGGAGU | -4.07 ± 0.27 | -2.82 ± 0.22
GCAAAGCAAUAUUACGAUGG | -1.02 ± 0.099 | -0.442 ± 0.13
GUAGAGCAAUAUUACGGUCG | -2.63 ± 0.19 | -1.8 ± 0.19
UUGUAGCAAUAUUACGCGGA | -1.43 ± 0.13 | -0.3 ± 0.11
GACGAGCAAUAUUACGGCAC | -2.53 ± 0.18 | -1.62 ± 0.16
GAGAAGCAAUAUUACGUGUU | -2.43 ± 0.098 | -1.53 ± 0.14
GGCUAGCAAUAUUACGCUCA | -2.07 ± 0.33 | -0.183 ± 0.25
ACGUAGCAAUAUUACGGGCU | -1.15 ± 0.063 | -1.18 ± 0.1
UUUGAGCAAUAUUACGUAGA | -1.7 ± 0.22 | -0.802 ± 0.24
UUCUAGCAAUAUUACGUACG | -1.82 ± 0.14 | -0.281 ± 0.14
CCUAAGCAAUAUUACGGCCA | -2.55 ± 0.22 | -2.58 ± 0.26

Sequence | self-splicing fitness (ln) (30 °C) | self-splicing fitness (ln) (37 °C)
UCGGAGCAAUAUUACGUUAA | -2.69 ± 0.31 | -2.78 ± 0.32
GGCAAGCAAUAUUACGGGUC | -3.2 ± 0.17 | -0.979 ± 0.12
CGGAAGCAAUAUUACGUGUU | -3.75 ± 0.17 | -2.43 ± 0.17
UAUCAGCAAUAUUACGCUUC | -2.82 ± 0.23 | -2.09 ± 0.27
AUAAAGCAAUAUUACGUGGU | -2.45 ± 0.094 | -1.64 ± 0.1
UGUUAGCAAUAUUACGGAGU |  | -2.73 ± 0.27
AUAGAGCAAUAUUACGAAAA | -1.06 ± 0.3 | -1.85 ± 0.35
ACCCAGCAAUAUUACGGCCA | -1.17 ± 0.075 | -0.171 ± 0.09
CGUAAGCAAUAUUACGUGCU | -3.24 ± 0.21 | -1.94 ± 0.21
UAUUAGCAAUAUUACGAUAU | -3.81 ± 0.26 | -2.11 ± 0.2
UCGCAGCAAUAUUACGGCCU | -0.665 ± 0.057 | 0.148 ± 0.076
ACCAAGCAAUAUUACGCUGA | -1.73 ± 0.1 | -1.13 ± 0.11
ACUAAGCAAUAUUACGGCAG | -1.71 ± 0.1 | -0.238 ± 0.11
GCGAAGCAAUAUUACGCUCA | -1.48 ± 0.28 | -2.25 ± 0.33
ACAAAGCAAUAUUACGGUCC | -1.7 ± 0.11 | -0.977 ± 0.16
GGACAGCAAUAUUACGAUGA | -1.08 ± 0.15 | -1.65 ± 0.14
AUACAGCAAUAUUACGCGUU | -3.01 ± 0.14 | -0.461 ± 0.099
CAAAAGCAAUAUUACGAAUA | -2.77 ± 0.16 | -1.5 ± 0.15
CGCGAGCAAUAUUACGGUCU | -3.82 ± 0.2 | -0.953 ± 0.15
GCCGAGCAAUAUUACGAAAG | -2.81 ± 0.33 | 
CUGUAGCAAUAUUACGCACG | -0.568 ± 0.12 | -0.0751 ± 0.12
GUUGAGCAAUAUUACGGGAC | -2.69 ± 0.34 | -1.49 ± 0.35
UGGGAGCAAUAUUACGCUCC |  | -2.7 ± 0.44
UCUCAGCAAUAUUACGGUAA | -2.11 ± 0.14 | -1.02 ± 0.12
UGGUAGCAAUAUUACGGCAC |  | -1.39 ± 0.44

Sequence | self-splicing fitness (ln) (30 °C) | self-splicing fitness (ln) (37 °C)
AUCUAGCAAUAUUACGCAAU | -2.02 ± 0.089 | -1.37 ± 0.09
UCUGAGCAAUAUUACGUAGA | -0.966 ± 0.1 | -0.205 ± 0.14
GACCAGCAAUAUUACGGGGA | -0.82 ± 0.074 | -0.839 ± 0.087
UAAAAGCAAUAUUACGACGA | -0.526 ± 0.087 | -0.201 ± 0.086
UAAGAGCAAUAUUACGUGCU | -4.59 ± 0.31 | -2.09 ± 0.27
GAUUAGCAAUAUUACGAAUU | -2.56 ± 0.3 | -2.95 ± 0.47
AGGCAGCAAUAUUACGUGUU | -1.85 ± 0.063 | -1.38 ± 0.088
UAGCAGCAAUAUUACGAGUG | -1.02 ± 0.075 | -0.131 ± 0.075
GGUUAGCAAUAUUACGCGGG | -3.71 ± 0.22 | -1.23 ± 0.12
GCUUAGCAAUAUUACGCCGA | -2.42 ± 0.23 | -1.87 ± 0.27
UGAUAGCAAUAUUACGCCCG | 0.00499 ± 0.21 | -0.455 ± 0.2
AAAUAGCAAUAUUACGCACA | -0.634 ± 0.097 | -0.2 ± 0.14
UGUAAGCAAUAUUACGCUGG | -1.24 ± 0.15 | -1.85 ± 0.19
AAACAGCAAUAUUACGAUGG | -3.16 ± 0.15 | -1.27 ± 0.16
UGACAGCAAUAUUACGCCCA | 0.217 ± 0.12 | 0.269 ± 0.16
GUGCAGCAAUAUUACGCCGU | -2.77 ± 0.23 | -0.412 ± 0.18
CAGCAGCAAUAUUACGCCUC | -1.98 ± 0.13 | -0.839 ± 0.14
AAGUAGCAAUAUUACGCGCA | -0.196 ± 0.11 | 0.0802 ± 0.13
CCGAAGCAAUAUUACGGGCG | -0.886 ± 0.066 | -0.235 ± 0.074
AGGAAGCAAUAUUACGUGAU | -3.24 ± 0.13 | -2.57 ± 0.18
AAUGAGCAAUAUUACGAUCG | -3.6 ± 0.32 | -2.59 ± 0.24
UUAAAGCAAUAUUACGUAUC | -2.17 ± 0.12 | -1.87 ± 0.16
UUCAAGCAAUAUUACGAGGA | -2.22 ± 0.14 | -1.43 ± 0.13
GUGCAGCAAUAUUACGUCGG | -2.84 ± 0.16 | -1.47 ± 0.17
CUUCAGCAAUAUUACGUUUG | -1.87 ± 0.082 | -1.24 ± 0.091

Sequence | self-splicing fitness (ln) (30 °C) | self-splicing fitness (ln) (37 °C)
CGCAAGCAAUAUUACGACGU | -1.73 ± 0.068 | -0.28 ± 0.069
CUGAAGCAAUAUUACGGGUG | -0.0462 ± 0.047 | 0.304 ± 0.071
AUCGAGCAAUAUUACGCCGA | -3.08 ± 0.34 | 
UUACAGCAAUAUUACGUAGA | -1.01 ± 0.067 | -0.372 ± 0.081
GAAGAGCAAUAUUACGGCCU | -1.15 ± 0.14 | -0.824 ± 0.19
CACCAGCAAUAUUACGCACC | -3.63 ± 0.47 | -2.31 ± 0.34
UGAAAGCAAUAUUACGCAUG | -0.902 ± 0.079 | -0.484 ± 0.091
UUUUAGCAAUAUUACGAUGA | 0.0426 ± 0.16 | -0.186 ± 0.2
UAGAAGCAAUAUUACGGCUC | -2.6 ± 0.3 | -0.946 ± 0.3
ACAGAGCAAUAUUACGGGGC | -3.53 ± 0.17 | -2.73 ± 0.22
CUCAAGCAAUAUUACGGAUG | -1.48 ± 0.088 | -1.05 ± 0.13
GAGUAGCAAUAUUACGGGGA | -2.51 ± 0.14 | -2.45 ± 0.2
CCCCAGCAAUAUUACGCAAC | -3.54 ± 0.14 | -2.48 ± 0.15
CACUAGCAAUAUUACGAUCC | -2.56 ± 0.33 | -1.91 ± 0.34
AACAAGCAAUAUUACGGCAU | -0.11 ± 0.057 | -0.0731 ± 0.073
AUACAGCAAUAUUACGCAAC | -2.13 ± 0.16 | -1.49 ± 0.15
UACAAGCAAUAUUACGAUAC | -3.7 ± 0.44 | -2.34 ± 0.25
CUGGAGCAAUAUUACGUGCA | -3.46 ± 0.41 | 
AGUCAGCAAUAUUACGUCAU | -0.181 ± 0.072 | -0.133 ± 0.09
GGUAAGCAAUAUUACGAAAA | -2.86 ± 0.43 | -0.969 ± 0.34
CUUUAGCAAUAUUACGUGCG | -2.29 ± 0.14 | -1.12 ± 0.12
UGGCAGCAAUAUUACGUGUA | -1.54 ± 0.089 | -0.712 ± 0.084
